Each block holds one binder with its values, some of them ahead of it.
B5: His10/Avi Human IL33-01 (ligand)
chain: MHHHHHHHHHHAAGLNDIFEAQKIEWHEAAIEGRSITGISPITEYLASLSTYNDQSITFALEDESYEIYVEDLKKDEKKDKVLLSYYESQHPSNESGDGVDGKMLMVTLSPTKDFWLHANNKEHSVELHKCEKPLPDQAFFVLHNMHSNCVSFECKTDPGVFIGVKDNHLALIKVDSSENLCTENILFKLSET
B6: His10/Avi Human IL33-11 (ligand)
chain: MHHHHHHHHHHAAGLNDIFEAQKIEWHEAAIEGRSITGISPITEYLASLSTYNDQSITFALEDESYEIYVEDLKKDEKKDKVLLSYYESQHPSNESGDGVDGKMLMVTLSPTKDFWLHANNKEHSVELHKSEKPLPDQAFFVLHNMHSNCVSFECKTDPGVFIGVKDNHLALIKVDSSENLSTENILFKLSET

What was measured:
His10/Avi Human IL33-01 [1] = target: B5; assay: HTRF epitope competition, scFv titrated; competitor DyLight labelled 33v20064 IgG
Protocol: (§1) This was followed by the addition of 2.5 microlitres of a solution containing 0.8 nM biotinylated human IL-33-01 combined with 0.75 nM streptavidin cryptate detection (Cisbio International, 610SAKLB) for the human assay or a solution containing 4 nM biotinylated cynomolgus IL-33 combined with 1.5 nM streptavidin cryptate detection (Cisbio International, 610SAKLB) for the cynomolgus assay. All dilutions were performed in assay buffer containing 0.8 M potassium fluoride (VWR, 26820.236) and 0.1% bovine serum albumin (BSA, PAA, K05-013) in Dulbeccos PBS (Invitrogen, 14190185). Assay plates were incubated for 1 hour at room temperature and time resolved fluorescence was read at 620 nm and 665 nm emission wavelengths using an EnVision plate reader (Perkin Elmer). Data were analysed by calculating the 665/620 nm ratio followed by the % Delta F values for each sample. The 665/620 nm ratio was used to correct for sample interference using Equation 1. The % Delta F for each sample was then calculated using Equation 2. The negative control (non-specific binding) was defined by replacing biotinylated IL-33 combined with streptavidin cryptate detection with streptavidin cryptate detection only. The % Delta F values were subsequently used to calculate % specific binding as described in Equation 3.
(§2) Unique scFv were expressed again in bacteria and purified by affinity chromatography (as described in WO01/66754). Purified anti-IL-33 antibody samples were tested for potency of inhibition by competing a dilution series of the purified preparation against DyLight labelled 33v20064 IgG or DyLight labelled 33_640027 IgG for binding to biotinylated His Avi IL33-01, biotinylated His Avi IL33-11 or biotinylated His Avi cynomolgus IL-33. Methods are as described in the previous section.

His10/Avi Human IL33-11 [2] = target: B6; assay: as above
Protocol: as §1, §2

His10/Avi Cyno IL-33 [3] = target: T1, His10/Avi Cyno IL-33 (cynomolgus monkey); assay: as above
T1 construct: also called Cynomolgus 10His Avitag IL-33; biotinylated His Avi cynomolgus IL-33
T1 chain: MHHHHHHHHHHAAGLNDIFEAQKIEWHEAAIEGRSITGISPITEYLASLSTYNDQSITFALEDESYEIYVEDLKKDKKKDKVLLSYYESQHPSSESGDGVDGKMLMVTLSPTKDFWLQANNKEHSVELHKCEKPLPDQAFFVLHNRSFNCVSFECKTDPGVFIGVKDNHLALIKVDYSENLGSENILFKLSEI
Protocol: as §1, §2

His10/Avi Human IL33-01 [4] = target: B5; assay: HTRF epitope competition, scFv titrated; competitor DyLight labelled 33_640027 IgG
His10/Avi Human IL33-11 [5] = target: B6; assay: as above
His10/Avi Cyno IL-33 [6] = target: T1, His10/Avi Cyno IL-33; assay: as above
Human IL-33 Flag®His [7] = target: T2, Human IL-33 Flag®His (human); assay: cell-based or functional assay
T2 chain: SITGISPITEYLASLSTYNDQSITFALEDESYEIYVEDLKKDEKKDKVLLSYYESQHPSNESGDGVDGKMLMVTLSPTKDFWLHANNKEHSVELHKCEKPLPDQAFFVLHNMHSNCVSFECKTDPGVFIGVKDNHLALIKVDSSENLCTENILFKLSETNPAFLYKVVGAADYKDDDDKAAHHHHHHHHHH

Human IL-33 Flag®His [8] = target: T2, Human IL-33 Flag®His; assay: HTRF competition, IgG titrated against biotinylated human ST2-Fc
Protocol: The ability of anti-IL-33 antibodies to inhibit the binding of FLAG®-His tagged IL-33 to the ST2 receptor was assessed in a biochemical HTRF® (Homogeneous Time-Resolved Fluorescence, Cisbio International) competition assay, the principles of which are described above.
(§3) Activity of purified IgG preparations were determined by competing a dilution series of the purified IgG against biotinylated human or mouse ST2.Fc for binding to FLAG® His-tagged human, cynomolgus or mouse IL-33.
(§4) Purified or unpurified anti-IL-33 antibody samples were tested for inhibition of FLAG®-His tagged IL-33 binding ST2-Fc by adding 10 microlitres of each dilution of antibody test sample to a 384 well low volume assay plate (Costar 3676). Next, a solution containing 4 nM biotinylated human or mouse ST2-Fc and 20 nM streptavidin XL665 detection (Cisbio International, 611SAXLB) was prepared and 5 microlitres of the mix added to the assay plate. This was followed by the addition of 5 microlitres of a solution containing 1.2 nM FLAG®-His tagged human, cynomolgus or mouse IL-33 combined with 1.72 nM anti-FLAG® cryptate detection (Cisbio International, 61FG2KLB). All dilutions were performed in assay buffer comprised of Dulbeccos PBS (Invitrogen, 14190185) containing 0.8 M potassium fluoride (BDH 103444T) and 0.1% BSA (Sigma A9576). Assay plates were incubated for 2 hour at room temperature followed by 16 hour at 4° C. before reading time resolved fluorescence at 620 nm and 665 nm emission wavelengths using an EnVision plate reader (Perkin Elmer).

[9] = target: T3, Cynomolgus IL-33 Flag®His (cynomolgus monkey); assay: HTRF competition: purified IgG titrated against biotinylated human ST2-Fc for FLAG-His cynomolgus IL-33
T3 construct: C-terminal FLAG 10xHis tag, E. coli; also called Mature Cynomolugus IL-33; cyno IL-33 FH
T3 chain: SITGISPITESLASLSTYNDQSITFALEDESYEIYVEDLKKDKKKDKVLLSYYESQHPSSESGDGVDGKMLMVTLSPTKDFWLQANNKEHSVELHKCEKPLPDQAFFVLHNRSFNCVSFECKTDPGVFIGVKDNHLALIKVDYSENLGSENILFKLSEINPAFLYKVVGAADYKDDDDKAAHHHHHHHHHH
Protocol: as §3, §4

[10] = target: T4, ST2 on human umbilical vein endothelial cells (human, UniProt Q01638 19-556); assay: cell-based or functional assay
T4 sequence (looked up): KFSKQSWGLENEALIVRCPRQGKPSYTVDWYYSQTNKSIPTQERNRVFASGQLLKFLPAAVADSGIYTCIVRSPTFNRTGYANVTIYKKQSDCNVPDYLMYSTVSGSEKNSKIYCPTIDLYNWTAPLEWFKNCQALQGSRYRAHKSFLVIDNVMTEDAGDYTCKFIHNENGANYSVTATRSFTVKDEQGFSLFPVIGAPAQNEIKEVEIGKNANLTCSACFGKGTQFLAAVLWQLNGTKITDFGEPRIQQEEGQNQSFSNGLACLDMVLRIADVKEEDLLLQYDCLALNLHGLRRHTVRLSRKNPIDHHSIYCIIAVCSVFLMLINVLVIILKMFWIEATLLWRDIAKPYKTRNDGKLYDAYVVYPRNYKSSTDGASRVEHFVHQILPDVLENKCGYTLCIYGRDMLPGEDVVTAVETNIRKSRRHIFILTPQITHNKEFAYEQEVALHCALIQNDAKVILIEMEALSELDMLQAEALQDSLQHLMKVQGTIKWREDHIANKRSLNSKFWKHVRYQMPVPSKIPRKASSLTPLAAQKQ

IC50, human ST2 transfected HeLa NFkB luciferase reporter assay (Human IL-33 Flag®His [7]): 245 nM
IC50 (Human IL-33 Flag®His [8]): 226 nM
binding result [9]: binds
B3: IL330126 IgG1 (antibody, V domains shown)
VH: EVQLVQSGAELKKPGASVKVSCKTSGYSFNTYGISWVRQAPGQGLEWMGWVSGDDGNINYAEKFQGRVAMTTDTSTTTAYMELWSLTSDDTAVYYCARVRRGSGWYKNYHYYMDVWGQGTMVTVSS
VL: QSVLTQPPSVSVSPGQTASVTCSGDRLGDKYASWYQQKPGQSPVLVIYQDRKRPSGIPERFSGSNSGNTATLTISGTQAMDEADYYCQAWDGSTALFGGGTKLTVL
notes: Human IgG1, lambda constant

IC50, human ST2 transfected HeLa NFkB luciferase reporter assay (Human IL-33 Flag®His [7]): 332 nM
IC50 (Human IL-33 Flag®His [8]): 210 nM
binding result [9]: binds
B4: IL330125 IgG1 (antibody, V domains shown)
VH: EVQLVQSGAEVKKPGASVTVSCKASGYSFTDYYIHWVRQAPGQGPEWMGWINPNSGVTDFAQKFLGRVTMTRDTSISTAYMELSRLTSDDTALYYCARVAFVYYDSSAFQYWGKGTLVTVSS
VL: LPVLTQPPSVSVSPGQTATITCSADKLGDKYAAWYQQKPGQSPVLVIYQDRKRPSGIPERFSGSNSGNTATLIISGTQAMDEADYYCQAWDSNTGLYVFGTGTKLTVL
notes: Human IgG1, lambda constant

Further lines, the binder ahead of its results:

B1: 33_640050 scFv (scFv, V domains shown)
VH: EVQLLESGGGLVQPGGSLRLSCAASGFTFSSYAMSWVRQAPGKGLEWVSAISGSGGSTYYADSVKGRFTISRDNSKNTLYLQMNSLRAEDTAVYYCPRHKFMQLWGGGLRYPFGYWGQGTMVTVSS
VL: SYVLTQPPSVSVSPGQTASITCSGERMGDKYAAWYQQKPGQSPVLVIYQDTKRPSGIPERFSGSNSGNTATLTISGTQAMDEADYYCQVWDSSTGVFGGGTKVTVL
notes: Single chain Fv
IC50 (His10/Avi Human IL33-01 [1]): 0.2 nM
IC50 (His10/Avi Human IL33-11 [2]): 0.4 nM
IC50 (His10/Avi Cyno IL-33 [3]): 1.4 nM
IC50 (His10/Avi Human IL33-01 [4]): 2.5 nM
IC50 (His10/Avi Human IL33-11 [5]): 2.4 nM
IC50 (His10/Avi Cyno IL-33 [6]): 4.1 nM

B2: 33v20064 scFv (scFv, V domains shown)
VH: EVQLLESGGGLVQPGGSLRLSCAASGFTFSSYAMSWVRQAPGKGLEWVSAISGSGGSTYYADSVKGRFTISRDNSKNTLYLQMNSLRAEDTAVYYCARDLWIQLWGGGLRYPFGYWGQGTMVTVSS
VL: LPVLTQPPSVSVSPGQKASITCSGERMGDKYAAWYQQKPGQSPILVIYQDTKRPSGIPERFSGSNSGNTATLTISGTQDMDEADYYCQVWDSSTGVFGGGTKVTVL
notes: Single chain Fv
IC50 (His10/Avi Human IL33-01 [1]): 12 nM
IC50 (His10/Avi Human IL33-11 [2]): 26 nM
IC50 (His10/Avi Cyno IL-33 [3]): 103 nM
IC50 (His10/Avi Human IL33-01 [4]): 1500 nM
IC50 (His10/Avi Human IL33-11 [5]): 1470 nM
IC50 (His10/Avi Cyno IL-33 [6]): 3430 nM

Binder: B5
IC50 (nM) Untreated, HUVEC NFkB translocation assay [10]: 0.13 nM

Binder: B6
IC50 (nM) Untreated, HUVEC NFkB translocation assay [10]: 0.49 nM

From patent US20200353078A1 (AstraZeneca / MedImmune, published 2020)
